Like-named read-outs stand apart in the source and are kept apart here. Blank lines part the entries; values can stand above or below the compound they belong to.
How the values were obtained:
[1] = MicroPET imaging of U87 MG tumor-bearing nude mice; type: in vivo, athymic nude mice; details: athymic nude, mouse, in vivo, iv, 11.1 MBq, total radioactivity
Protocol: (§1) Athymic nude mice (about 10-20 weeks old, with a body weight of 25-35 g) were obtained from Harlan (Charles River, Mass.). All animal experiments were performed according to a protocol approved by University of Southern California Institutional Animal Care and Use Committee. The U87 MG human glioma xenograft model was generated by subcutaneous injection of 5×10^6 U87 MG human glioma cells into the front flank of athymic nude mice. The tumors were allowed to grow 3-5 weeks until 200-500 mm^3 in volume. Tumor growth was followed by caliper measurements of the perpendicular dimensions.
(§2) MicroPET scans and imaging analysis were performed using a rodent scanner (microPET R4; Siemens Medical Solutions) as previously reported (26). Li, Z., Cai, W., Cao, Q., Chen, K., Wu, Z., He, L., and Chen, X. (2007) ^64Cu-labeled tetrameric and octameric RGD peptides for small-animal PET of tumor αvβ3 integrin expression. J Nucl Med 48, 1162-71. […] Ten minute static scans were acquired at 1, 2, 4, and 20 h post injection. The images were reconstructed by a 2-dimensional ordered-subsets expectation maximum (OSEM) algorithm. For each microPET scan, regions of interest were drawn over the tumor, normal tissue, and major organs on the decay-corrected whole-body coronal images. The radioactivity concentration (accumulation) within the tumor, muscle, liver, and kidneys were obtained from the mean value within the multiple regions of interest and then converted to % ID/g.

[2] = test system: U87 MG human glioma xenograft tumors; assay: MicroPET imaging of U87 MG tumor-bearing nude mice; type: in vivo, athymic nude mice; details: for uptake in U87 MG tumors: microPET
Protocol: as §1, §2

[3] = Biodistribution by direct tissue sampling in U87 MG tumor bearing nude mice; details: athymic nude, mouse, in vivo, 0.37 MBq, total radioactivity
Protocol: All mice were sacrificed and dissected at 20 h after the injection of the tracers. Blood, U87 MG tumor, major organs, and tissues were collected and weighed wet. The radioactivity in the tissues was measured using the gamma counter. The results were presented as percentage injected dose per gram of tissue (% ID/g). For each mouse, the radioactivity of the tissue samples was calibrated against a known aliquot of the injected activity. Mean uptake (% ID/g) for each group of animals was calculated with standard deviations.
To validate the accuracy of small animal PET quantification, we also performed a biodistribution experiment by using the direct tissue sampling technique. The data shown as the percentage administered activity (injected dose) per gram of tissue (% ID/g) in FIG. 19A. Both ^64Cu-AmBaSar-RGD and ^64Cu-DOTA-RGD mainly accumulated in kidneys, liver, stomach, intestine, and tumor. […] This difference was consistent with the excretion pattern from the microPET imaging results.

[4] = Log P of 64Cu-labeled RGD conjugates (1-octanol/PBS); type: physicochemical; details: pH 7.4, read-out: log P (octanol/water partition coefficient)
Protocol: After vigorously vortexing for 10 min, the vial was centrifuged for 5 min to ensure the complete separation of layers. Then, 3×10 μL of each layer was pipetted into other test tubes and radioactivity was measured using a gamma counter (Perkin-Elmer Packard Cobra). The measurement was repeated three times, and Log P values were calculated according to a known formula.

[5] = Metabolic stability in U87 MG tumor-bearing mouse (radio-HPLC of blood and tissue homogenates); type: in vivo, athymic nude mouse; details: 1 h post injection, i.v.
Protocol: The blood was collected and immediately centrifuged for 5 min at 13,200 rpm, and the upper serum solution was added to 100 μL PBS solution containing 50% TFA, followed by mixing and centrifugation for 10 min, and the upper solution was then taken out and filtered for HPLC analysis. Liver, kidneys, and tumor were homogenized using a homogenizer, suspended in 1 mL of PBS buffer, and centrifuged for 10 min at 14,000 rpm, respectively. For each sample, after removal of the supernatant, the solution was added to 100 μL PBS solution containing 50% TFA, followed by mixing and centrifugation for 10 min, and the upper solution was then taken and filtered for HPLC analysis. Radioactivity was monitored using a solid-state radiation detector. The eluent was also collected using a fraction collector (1.5 min/fraction) and the radioactivity of each fraction was measured with the γ counter.

[6] = test system: U87 MG human glioblastoma cell line (integrin αvβ3-positive); assay: Cell uptake study in U87 MG cells; type: cell-based; details: blocking with excess cold cyclic RGD
Protocol: U87 MG human glioblastoma cell line (integrin αvβ3-positive) was obtained from the American Type Culture Collection (ATCC, Manassas, Va.) and maintained under standard conditions according to ATCC as following: The U87 MG glioma cells were grown in Gibco's Dulbecco's medium supplemented with 10% fetal bovine serum (FBS), 100 IU/mL penicillin, and 100 μg/mL streptomycin (Invitrogen Co, Carlsbad, Calif.), at 37° C. in humidified atmosphere containing 5% CO2. The U87 MG glioma cells were grown in culture until sufficient cells were available.
The cell uptake study was performed as described in the literature with some modifications. […] The tumor cells were then washed three times with chilled PBS and harvested by 0.1 N NaOH solution containing 0.5% sodium dodecyl sulfate (SDS). The cell suspensions were collected and measured in the gamma counter.

[7] = In vitro stability of 64Cu-labeled RGD conjugates in PBS, FBS and mouse serum; type: in vitro ADME; details: 37° C., 24 h incubation; for remaining at 24 h, 3.7 MBq/mL: read-out: radiochemical purity / tracer remained intact
Protocol: After incubated at 37° C. for 3, 18, and 24 h, an aliquot of the mixture was removed from the PBS solution and the radiochemical purity was determined with HPLC. For the solution of FBS and mouse serum, the aliquots were added to 100 μL PBS with 50% TFA. After centrifugation, the upper solution was taken and filtered for HPLC analysis.

[8] = MicroPET imaging of radiolabeled BFCs in Balb/c mice; type: in vivo; details: between 30 min and 2 hours, micro-PET region of interest quantification
Protocol: MicroPET imaging and biodistribution studies were performed with the non-targeted ^64Cu-AmBaSar and ^64Cu-DOTA complexes to allow a comparison of their base-line organ uptake and clearance properties. After 30 min, the radioactivity quickly cleared from muscle and blood, and mainly localized in the bladder and kidneys. Regarding ^64Cu-DOTA, the radioactivity mainly localized in the bladder, kidneys, and liver.
MicroPET imaging and biodistribution of the radiolabeled BFCs were performed on Balb/c mice to evaluate their in vivo properties. Animals (Balb/c, n=2) were injected with 0.3 mCi ^64Cu-AmBaSar or ^64Cu-DOTA through the tail vein. PET imaging (10-min static scans) was performed using a microPET R4 scanner (Concorde Microsystems, Inc, Knoxville, Tenn.), with 120 transaxial planes and spatial resolution of 1.2 mm, at 30 min and 2 h postinjection. The microPET data were reconstructed using the ordered subsets expectation maximization (OSEM) algorithm using the microPET Manager Software (CTI Concorde Microsystems, Inc, Knoxville, Tenn.). Images were then analyzed using the Acquisition Sinogram Image Processing (ASIPro) software (CTI Concorde Microsystems, Inc, Knoxville, Tenn.).

[9] = Biodistribution of radiolabeled BFCs in Balb/c mice; type: in vivo
Protocol: The biodistribution of ^64Cu-AmBaSar and ^64Cu-DOTA were assessed in Balb/c mice. Each animal was sacrificed at the time interval 2 h and the organs dissected. The values of percent injected dose/gram (ID/g %) in different organs were compared and illustrated in FIG. 13. The ^64Cu-AmBaSar cleared rapidly from the blood and predominantly through the kidneys. After 2 h, the kidney and liver uptake reached 1.09±0.27, 0.14±0.01% ID/g, respectively, which is consistent with the excretion pattern from the microPET imaging results. The ^64Cu-DOTA cleared through the kidney and liver, with uptake reached 1.28±0.41, 1.25±0.09, respectively, by 2 h.
For biodistribution studies, one group of mice (Balb/c, n=3) was injected intravenously with the radiotracer ^64Cu-AmBaSar (10 μCi, 100 μL). Another group of mice was injected similarly with ^64Cu-DOTA (10 μCi, 100 μL). Activity injected into each mouse was measured in a dose calibrator (Capintec). After inhalation anesthesia, animals were sacrificed at 2 h postinjection. Tissues and organs of interest were separated and weighed. Radioactivity in each organ was measured using a gamma counter, and radioactivity uptake was expressed as % ID/g. Mean uptake (% ID/g) for each group of animals was calculated with standard deviations.

[10] = Lipophilicity (octanol/water partition coefficient) of 64Cu-AmBaSar and 64Cu-DOTA; type: physicochemical; details: 1-octanol/PBS, pH 7.4
Protocol: Information about the lipophilicity of the ^64Cu-AmBaSar and ^64Cu-DOTA was obtained by measuring their partitioning in a 1-octanol/water system. Counts in samples were used to determine partition coefficients (log P) values, calculated using a known formula. The log P values were measured at pH 7.4 in PBS. The log P value of ^64Cu-AmBaSar is −2.6, and the corresponding value of ^64Cu-DOTA is −2.3. Both ^64Cu-AmBaSar and ^64Cu-DOTA are hydrophilic.
The partition coefficient value was expressed as log P. Log P of ^64Cu-AmBaSar or ^64Cu-DOTA was determined by measuring the distribution of radioactivity in 1-octanol and PBS. A 5 μL sample of ^64Cu-AmBaSar or ^64Cu-DOTA in PBS was added to a vial containing 1 mL each of 1-octanol and PBS. After vortexing for 5 min, the vial was centrifuged for 5 min to ensure complete separation of layers. Then, 5 μL of each layer was pipetted into other test tubes and radioactivity was measured using a gamma counter (Packard). The measurement was repeated three times.

[11] = 2 h postinjection, Balb/c mice, i.v.

Structure (SMILES): N=C(N)NCCC[C@@H]1NC(=O)[C@H](CCCCNC(=O)c2ccc(CNC34CNCCNCC(N)(CNCCNC3)CNCCNC4)cc2)NC(=O)[C@@H](Cc2ccc(O)cc2)NC(=O)[C@H](CC(=O)O)NC(=O)CNC1=O [^64Cu-AmBaSar-RGD, metal not drawn]
tissue uptake at 1 h ([1]; microPET, 1 h p.i., read-out: liver uptake): 0.89 ± 0.13 %ID/g
tissue uptake at 1 h ([1]; microPET, 1 h p.i., read-out: renal uptake): 2.83 ± 0.77 %ID/g
tissue uptake at 2 h ([1]; microPET, 2 h p.i., read-out: liver uptake): 0.76 ± 0.13 %ID/g
tissue uptake at 2 h ([1]; microPET, 2 h p.i., read-out: renal uptake): 2.68 ± 0.55 %ID/g
tissue uptake at 4 h ([1]; microPET, 4 h p.i., read-out: liver uptake): 0.75 ± 0.14 %ID/g
tissue uptake at 4 h ([1]; microPET, 4 h p.i., read-out: renal uptake): 2.49 ± 0.5 %ID/g
tissue uptake at 20 h ([1]; microPET, 20 h p.i., read-out: liver uptake): 0.64 ± 0.06 %ID/g
tissue uptake at 20 h ([1]; microPET, 20 h p.i., read-out: renal uptake): 1.43 ± 0.35 %ID/g
uptake in U87 MG tumors ([2]; 1 h p.i.): 2.04±0.14 % ID/g
uptake in U87 MG tumors ([2]; 4 h p.i.): 1.87±0.11 % ID/g
uptake in U87 MG tumors ([2]; 20 h p.i.): 0.97±0.05 % ID/g
tissue uptake at 20 h ([3]; direct tissue sampling, 20 h p.i., read-out: kidneys uptake): 1.51 ± 0.27 %ID/g
tissue uptake at 20 h ([3]; direct tissue sampling, 20 h p.i., read-out: liver uptake): 0.55 ± 0.06 %ID/g
logP [4]: -2.44 ± 0.12
amount of intact tracer in the blood [5]: approximately 88%
amount of intact tracer in the kidneys [5]: ~98%
amount of intact tracer in the liver [5]: ~98%
amount of intact tracer in the tumor [5]: ~95%
binding to U87 MG cells in presence of excess cold cyclic RGD peptide [6]: efficiently blocked
radiochemical purity / tracer remained intact ([7]; PBS or FBS): more than 97%
radiochemical purity / tracer remained intact ([7]; mouse serum): > 95%
remaining at 24 h, 3.7 MBq/mL ([7]; mouse serum): > 95%
remaining at 24 h, 3.7 MBq/mL ([7]; serum, pH 7.4, PBS or FBS): > 97%

Structure (SMILES): N=C(N)NCCC[C@@H]1NC(=O)[C@H](CCCCNC(=O)CN2CCN(CC(=O)O)CCN(CC(=O)O)CCN(CC(=O)O)CC2)NC(=O)[C@@H](Cc2ccc(O)cc2)NC(=O)[C@H](CC(=O)O)NC(=O)CNC1=O [^64Cu-DOTA-RGD, metal not drawn]
tissue uptake at 1 h ([1]; liver uptake): 2.28 ± 1.08 %ID/g
tissue uptake at 2 h ([1]; liver uptake): 2.31 ± 1.34 %ID/g
tissue uptake at 4 h ([1]; liver uptake): 2.15 ± 0.9 %ID/g
tissue uptake at 20 h ([1]; liver uptake): 2.52 ± 1.43 %ID/g
tissue uptake at 1 h ([1]; renal uptake): 1.52 ± 0.46 %ID/g
tissue uptake at 2 h ([1]; renal uptake): 1.33 ± 0.23 %ID/g
tissue uptake at 4 h ([1]; renal uptake): 1.55 ± 0.61 %ID/g
tissue uptake at 20 h ([1]; renal uptake): 1.58 ± 0.13 %ID/g
uptake in U87 MG tumors ([2]; 1 h p.i.): 2.03±0.10 % ID/g
uptake in U87 MG tumors ([2]; 2 h p.i.): 1.97±0.05 % ID/g
uptake in U87 MG tumors ([2]; 4 h p.i.): 1.88±0.29 % ID/g
uptake in U87 MG tumors ([2]; 20 h p.i.): 0.88±0.07 % ID/g
liver uptake compared with 64Cu-AmBaSar-RGD ([2]; mouse, in vivo): 2-3 times
tissue uptake at 20 h ([3]; kidneys uptake): 0.98 ± 0.4 %ID/g
tissue uptake at 20 h ([3]; liver uptake): 2.16 ± 0.85 %ID/g
binding to U87 MG cells in presence of excess cold cyclic RGD peptide [6]: efficiently blocked

decrease of renal activity [8]: 66%
liver uptake relative to 64Cu-AmBaSar ([9]; 2 h post injection): eight times higher
kidney uptake [9, 11]: 1.28±0.41 % ID/g
liver uptake [9, 11]: 1.25±0.09 % ID/g
log P [10]: −2.3
Structure (SMILES): O=C([O-])CN1CCN(CC(=O)[O-])CCN(CC(=O)O)CCN(CC(=O)O)CC1.[64Cu+2] [^64Cu-DOTA]

Reference: US9403875B2, “Cage-like bifunctional chelators, copper-64 radiopharmaceuticals and PET imaging using the same” (UNIVERSITY OF SOUTHERN CALIFORNIA, priority 2009, dated 2016)
